Numbering of substitutions follows the chain as printed. Where two headings read alike, the source gives them in different places.
Assays:
[1] = biological target: T1, GAF (GAGA factor);Hsf;Ttk69 (Drosophila melanogaster?;Drosophila …, UniProt Q08605;P22813;P17789 1-582;1-691;1-643, ||); assay: competition
[2] = biological target: T2, Hsf (UniProt P22813 1-691); assay: EMSA
T2 sequence: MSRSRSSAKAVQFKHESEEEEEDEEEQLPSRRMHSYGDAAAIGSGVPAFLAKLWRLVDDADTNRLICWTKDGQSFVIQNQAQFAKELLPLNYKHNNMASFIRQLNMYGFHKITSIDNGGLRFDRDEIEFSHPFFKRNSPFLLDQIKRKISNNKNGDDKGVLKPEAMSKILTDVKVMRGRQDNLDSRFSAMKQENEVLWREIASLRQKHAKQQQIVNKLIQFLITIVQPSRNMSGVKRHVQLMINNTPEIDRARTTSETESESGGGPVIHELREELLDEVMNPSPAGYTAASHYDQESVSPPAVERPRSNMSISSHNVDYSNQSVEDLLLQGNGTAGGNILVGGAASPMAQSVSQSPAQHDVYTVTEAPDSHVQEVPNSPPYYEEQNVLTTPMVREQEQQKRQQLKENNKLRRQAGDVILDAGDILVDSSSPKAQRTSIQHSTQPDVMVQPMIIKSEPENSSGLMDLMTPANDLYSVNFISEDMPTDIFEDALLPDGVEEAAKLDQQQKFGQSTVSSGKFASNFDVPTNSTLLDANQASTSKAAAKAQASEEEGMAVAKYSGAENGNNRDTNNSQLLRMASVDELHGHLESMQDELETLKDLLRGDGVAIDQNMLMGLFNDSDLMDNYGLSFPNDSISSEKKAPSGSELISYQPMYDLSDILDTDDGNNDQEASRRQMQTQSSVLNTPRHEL

[3] = biological target: T3, GAF (GAGA factor) (UniProt Q08605 1-582); assay: EMSA
T3 sequence: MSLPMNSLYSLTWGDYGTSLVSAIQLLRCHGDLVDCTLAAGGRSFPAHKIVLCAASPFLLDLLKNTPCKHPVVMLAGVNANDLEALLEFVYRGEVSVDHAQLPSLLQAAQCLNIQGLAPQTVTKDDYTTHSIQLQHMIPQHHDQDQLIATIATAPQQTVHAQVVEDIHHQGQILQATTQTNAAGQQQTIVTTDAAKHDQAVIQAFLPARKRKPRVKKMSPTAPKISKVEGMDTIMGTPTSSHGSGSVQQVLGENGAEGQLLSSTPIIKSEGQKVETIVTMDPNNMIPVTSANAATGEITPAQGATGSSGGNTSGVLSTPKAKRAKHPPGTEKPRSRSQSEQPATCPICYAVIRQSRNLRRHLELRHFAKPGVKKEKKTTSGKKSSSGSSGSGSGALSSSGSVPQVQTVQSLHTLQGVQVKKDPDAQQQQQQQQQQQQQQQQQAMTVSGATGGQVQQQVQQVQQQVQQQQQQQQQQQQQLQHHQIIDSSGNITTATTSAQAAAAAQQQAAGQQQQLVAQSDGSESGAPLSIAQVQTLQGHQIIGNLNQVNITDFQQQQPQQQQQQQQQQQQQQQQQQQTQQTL

[4] = biological target: T4, GAF (GAGA factor);Hsf-S378D (Drosophila melanogaster?;Drosophila …, UniProt Q08605;P22813 1-582;1-691, |S378D); assay: EMSA
T4 sequence 1: T3 sequence
T4 sequence 2: T2 sequence with S378D

[5] = biological target: Ttk69 (UniProt P17789 1-643); assay: EMSA
[6] = biological target: GAF (GAGA factor);Ttk69 (Drosophila melanogaster?;Drosophila …, UniProt Q08605;P17789 1-582;1-643, |); assay: EMSA
[7] = biological target: Hsf;Ttk69 (Drosophila melanogaster?;Drosophila …, UniProt P22813;P17789 1-691;1-643, |); assay: EMSA
[8] = biological target: T1, GAF (GAGA factor);Hsf;Ttk69; assay: competition; remark: listed apart in the source

B1: TBS competitor (dsDNA)
DNA 1: TCCTCATGGTCCTGCCGAGCAG
DNA 2: CTGCTCGGCAGGACCATGAGGA
B1: no binding [1].

B2: tor-RE 25-bp probe (dsDNA)
DNA 1: CGTTCCTTGCTCAATGAATTTTTCG
DNA 2: CGAAAAATTCATTGAGCAAGGAACG
B2: no binding [2]; binds [3]; binds [4]. The binding result [5] was “no binding”, the binding signal [6] was 5 fold vs GAF alone and the binding result [7] was “no binding”.

B3: HSE competitor (dsDNA)
DNA 1: CGCCTCGAATGTTCGCGAAAAGAGCGCCGG
DNA 2: CCGGCGCTCTTTTCGCGAACATTCGAGGCG
B3: binds [8].

From PMC2651784
